According to PMC3984902 (Oncogene, 2013):
Numbering of substitutions follows the chain as printed. In names and notes the source's numbering stands.

B1: FLAG-tagged wildtype CDC37 (purified recombinant) (natural protein)
chain: MVDYSVWDHIEVSDDEDETHPNIDTASLFRWRHQARVERMEQFQKEKEELDRGCRECKRKVAECQRKLKELEVAEGGKAELERLQAEAQQLRKEERSWEQKLEEMRKKEKSMPWNVDTLSKDGFSKSMVNTKPEKTEEDSEEVREQKHKTFVEKYEKQIKHFGMLRRWDDSQKYLSDNVHLVCEETANYLVIWCIDLEVEEKCALMEQVAHQTIVMQFILELAKSLKVDPRACFRQFFTKIKTADRQYMEGFNDELEAFKERVRGRAKLRIEKAMKEYEEEERKKRLGPGGLDPVEVYESLPEELQKCFDVKDVQMLQDAISKMDPTDAKYHMQRCIDSGLWVPNSKASEAKEGEEAGPGDPLLEAVPKTGDEKDVSV
B2: FLAG-tagged CDC37 M164A (purified recombinant) (natural protein)
chain: B1 chain with M164A

Biological target: HSP90β (purified recombinant) (UniProt P08238 1-724)
Sequence (P08238 whole entry): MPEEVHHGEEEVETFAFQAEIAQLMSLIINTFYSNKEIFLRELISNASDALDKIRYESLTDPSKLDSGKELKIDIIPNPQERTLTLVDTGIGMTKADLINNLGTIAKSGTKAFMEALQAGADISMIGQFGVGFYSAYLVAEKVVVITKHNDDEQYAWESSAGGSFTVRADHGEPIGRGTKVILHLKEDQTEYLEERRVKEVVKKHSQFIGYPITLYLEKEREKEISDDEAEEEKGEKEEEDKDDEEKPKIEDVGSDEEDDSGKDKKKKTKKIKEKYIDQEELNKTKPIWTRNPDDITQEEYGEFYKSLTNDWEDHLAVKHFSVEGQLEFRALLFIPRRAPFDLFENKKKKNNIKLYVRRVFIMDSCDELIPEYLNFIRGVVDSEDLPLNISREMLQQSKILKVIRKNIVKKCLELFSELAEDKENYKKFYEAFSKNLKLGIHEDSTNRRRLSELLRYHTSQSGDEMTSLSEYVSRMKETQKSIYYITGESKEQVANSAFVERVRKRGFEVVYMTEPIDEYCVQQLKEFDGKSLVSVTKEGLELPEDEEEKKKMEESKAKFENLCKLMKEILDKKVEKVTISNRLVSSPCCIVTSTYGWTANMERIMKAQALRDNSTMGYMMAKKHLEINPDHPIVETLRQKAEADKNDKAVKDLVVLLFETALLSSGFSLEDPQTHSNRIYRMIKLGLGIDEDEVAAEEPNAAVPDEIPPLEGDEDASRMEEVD
Test: ITC

| Binder | Kd |
| --- | --- |
| B1 | 2.26 µM |
| B2 | 7.19 µM |
